Measured values from paper PMC248471 (Biological Procedures Online, 2003).
Where two headings read alike, the source gives them in different places.

What was measured:
[1] = target: T1, 72 kDa heat shock protein (HSP72), recombinant human (human, UniProt P0DMV8 1-641); test: SPR
[2] = target: T1, 72 kDa heat shock protein (HSP72), …; test: SPR; remark: listed apart in the source

T1 sequence (P0DMV8 whole entry): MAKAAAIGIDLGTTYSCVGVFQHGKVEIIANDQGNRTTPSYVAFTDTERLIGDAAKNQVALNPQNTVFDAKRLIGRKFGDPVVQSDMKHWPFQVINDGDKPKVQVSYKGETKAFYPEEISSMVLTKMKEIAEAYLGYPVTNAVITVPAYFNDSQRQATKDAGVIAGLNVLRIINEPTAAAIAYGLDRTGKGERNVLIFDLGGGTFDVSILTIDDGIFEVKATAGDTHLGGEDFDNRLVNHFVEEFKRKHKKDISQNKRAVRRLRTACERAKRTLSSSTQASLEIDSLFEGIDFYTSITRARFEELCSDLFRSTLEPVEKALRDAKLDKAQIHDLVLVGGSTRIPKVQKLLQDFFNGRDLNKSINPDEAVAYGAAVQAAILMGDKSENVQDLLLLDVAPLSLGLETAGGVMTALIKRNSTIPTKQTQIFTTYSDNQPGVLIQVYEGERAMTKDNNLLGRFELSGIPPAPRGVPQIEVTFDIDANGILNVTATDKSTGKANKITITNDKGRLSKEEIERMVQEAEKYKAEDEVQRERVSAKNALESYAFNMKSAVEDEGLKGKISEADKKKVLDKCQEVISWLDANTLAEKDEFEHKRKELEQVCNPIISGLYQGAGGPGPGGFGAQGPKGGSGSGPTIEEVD

DTDTPIVYNDRNLLD [Peptide N, the extreme carboxyl terminus (15 amino acids) of the Edmonston MV N protein]
Kd [1]: 4000 nM
Kd [2]: 1000 nM
kon [2]: 357 M⁻¹ s⁻¹
